Assay results from the supplement of paper PMC11780869.

System: Bacillus subtilis
Experiment: cleaved RNA product abundance (RNA/gDNA barcode ratio) relative to median wild-type variant (ratio to wild type); higher = more accumulation of the downstream cleavage product
Conditions: cleavage site: cggR-gapA (positions -7 to +36 mutated)
How it was run: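 Reporter mRNAs based on truncated aprE or tetM carried barcoded, mutagenized RNase Y cleavage-site windows built from oligos with a 9% error rate and were integrated into the B. subtilis chromosome. Cultures grew in LB at 37°C from OD600 0.0003 to 0.3. Cleaved RNA was gel-selected, reverse transcribed and barcode-sequenced together with genomic DNA barcodes, and UMIs were collapsed. Cleaved product abundance is the per-construct ratio of RNA to gDNA barcodes, scaled to the median of constructs carrying the unmutated site.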

[1] = experiment (reporter, strain, medium): exp 4a: truncated aprE reporter, strain BJT201 with 2% xylose (RNase J1 expressed)
[2] = experiment (reporter, strain, medium): exp 2b: truncated aprE reporter, strain BJT200
[3] = experiment (reporter, strain, medium): exp 6: tetM reporter, strain 168

## ACAGACGAAGGAGCCGCAAAGAAGTTACTAAGGGATGAATAAACCCTCAATATAAATATCTCTCACTTATTTAAA
[1]
  cleaved RNA product abundance: 0.14

## ACAGACGAAGGAGCCGCAAAGAAGTTACTAAGGGATGAATAATCACTCAATATAAATATCTCTCACTTATTTAAA
[1]
  cleaved RNA product abundance: 0.177

## ACAGACGAAGGAGCCGCAAAGAAGTTACTAAGGGATGAATAATCCCACAATATAAATATCTCTCACTTATTTAAA
[2]
  cleaved RNA product abundance: 0.126
[1]
  cleaved RNA product abundance: 0.153

## ACAGACGAAGGAGCCGCAAAGAAGTTACTAAGGGATGAATAATCCCTAAATATAAATATCTCTCACTTATTTAAA
[1]
  cleaved RNA product abundance: 0.253

## ACAGACGAAGGAGCCGCAAAGAAGTTACTAAGGGATGAATAATCCCTCAAAATAAATATCTCTCACTTATTTAAA
[1]
  cleaved RNA product abundance: 0.288

## ACAGACGAAGGAGCCGCAAAGAAGTTACTAAGGGATGAATAATCCCTCAATATAAATATCTCTCACTTATTTAAA
[2]
  cleaved RNA product abundance: 0.219
[1]
  cleaved RNA product abundance: 0.314
[3]
  cleaved RNA product abundance: 0.275

## ACAGACGAAGGAGCCGCAAAGAAGTTACTAAGGGATGAATAATCCCTCAATATATATATCTCTCACTTATTTAAA
[1]
  cleaved RNA product abundance: 0.346

## ACAGACGAAGGAGCCGCAAAGAAGTTACTAAGGGATGAATAATCCCTCATTATAAATATCTCTCACTTATTTAAA
[2]
  cleaved RNA product abundance: 0.218
[1]
  cleaved RNA product abundance: 0.342

## ACAGACGAAGGAGCCGCAAAGAAGTTACTAAGGGATGAATAATCCCTCGATATAAATATCTCTCACTTATTTAAA
[1]
  cleaved RNA product abundance: 0.227

## ACAGACGAAGGAGCCGCAAAGAAGTTACTAAGGGATGAATAATCGCTCAATATAAATATCTCTCACTTATTTAAA
[2]
  cleaved RNA product abundance: 0.0765
[1]
  cleaved RNA product abundance: 0.0864

## ACAGACGAAGGAGCCGCAAAGAAGTTACTAAGGGATGAATAATCTCTCAATATAAATATCTCTCACTTATTTAAA
[2]
  cleaved RNA product abundance: 0.149
[1]
  cleaved RNA product abundance: 0.22

## ACAGACGAAGGAGCCGCAAAGAAGTTACTAAGGGATGAATAATTCCTCAATATAAATATCTCTCACTTATTTAAA
[1]
  cleaved RNA product abundance: 0.24

## ACAGACGAAGGAGCCGCAAAGAAGTTACTAAGGGATGAATACTCCCTCAATATAAATATCTCTCACTTATTTAAA
[2]
  cleaved RNA product abundance: 0.107

## ACAGACGAAGGAGCCGCAAAGAAGTTACTAAGGGATGAATTATCCCTCAATATAAATATCTCTCACTTATTTAAA
[2]
  cleaved RNA product abundance: 0.199
[1]
  cleaved RNA product abundance: 0.25

## ACAGACGAAGGAGCCGCAAAGAAGTTACTAAGGGATGATTAATCCCTCAATATAAATATCTCTCACTTATTTAAA
[2]
  cleaved RNA product abundance: 0.155

## ACAGACGAAGGAGCCGCAAAGAAGTTACTAAGGGATGCATAATCCCTCAATATAAATATCTCTCACTTATTTAAA
[1]
  cleaved RNA product abundance: 0.235

## ACAGACGAAGGAGCCGCAAAGAAGTTACTAAGGGATGGATAATCCCTCAATATAAATATCTCTCACTTATTTAAA
[1]
  cleaved RNA product abundance: 0.208

## ACAGACGAAGGAGCCGCAAAGAAGTTACTAAGGGATTAATAATCCCTCAATATAAATATCTCTCACTTATTTAAA
[2]
  cleaved RNA product abundance: 0.169
[1]
  cleaved RNA product abundance: 0.299

## ACAGACGAAGGAGCCGCAAAGAAGTTACTAAGGGGTGAATAATCCCTCAATATAAATATCTCTCACTTATTTAAA
[2]
  cleaved RNA product abundance: 0.144

## ACAGACGAAGGAGCCGCAAAGAAGTTACTAAGGTATGAATAATCCCTCAATATAAATATCTCTCACTTATTTAAA
[2]
  cleaved RNA product abundance: 0.103
[1]
  cleaved RNA product abundance: 0.15
[3]
  cleaved RNA product abundance: 0.0813

## ACAGACGAAGGAGCCGCAAAGAAGTTACTAAGTGATGAATAATCCCTCAATATAAATATCTCTCACTTATTTAAA
[2]
  cleaved RNA product abundance: 0.0989
[1]
  cleaved RNA product abundance: 0.102

## ACAGACGAAGGAGCCGCAAAGAAGTTACTAATGGATGAATAATCCCTCAATATAAATATCTCTCACTTATTTAAA
[2]
  cleaved RNA product abundance: 0.112
[1]
  cleaved RNA product abundance: 0.172

## ACAGACGAAGGAGCCGCAAAGAAGTTACTATGGGATGAATAATCCCTCAATATAAATATCTCTCACTTATTTAAA
[1]
  cleaved RNA product abundance: 0.228

## ACAGACGAAGGAGCCGCAAAGAAGTTAGAAAGGGATGAATAATCCCTCAATATAAATATCTCTCACTTATTTAAA
[1]
  cleaved RNA product abundance: 0.426

## ACAGACGAAGGAGCCGCAAAGAAGTTAGTAAGCGATGAATAATCCCTCAATATAAATATCTCTCACTTATTTAAA
[1]
  cleaved RNA product abundance: 0.0715

## ACAGACGAAGGAGCCGCAAAGAAGTTAGTAAGGAATGAATAATCCCTCAATATAAATATCTCTCACTTATTTAAA
[2]
  cleaved RNA product abundance: 0.0912

## ACAGACGAAGGAGCCGCAAAGAAGTTAGTAAGGGAAGAATAATCCCTCAATATAAATATCTCTCACTTATTTAAA
[1]
  cleaved RNA product abundance: 0.302

## ACAGACGAAGGAGCCGCAAAGAAGTTAGTAAGGGAGGAATAATCCCTCAATATAAATATCTCTCACTTATTTAAA
[2]
  cleaved RNA product abundance: 0.123
[1]
  cleaved RNA product abundance: 0.199

## ACAGACGAAGGAGCCGCAAAGAAGTTAGTAAGGGATCAATAATCCCTCAATATAAATATCTCTCACTTATTTAAA
[1]
  cleaved RNA product abundance: 0.305

## ACAGACGAAGGAGCCGCAAAGAAGTTAGTAAGGGATGAATAAACCCTCAATATAAATATCTCTCACTTATTTAAA
[1]
  cleaved RNA product abundance: 0.158

## ACAGACGAAGGAGCCGCAAAGAAGTTAGTAAGGGATGAATAATACCTCAATATAAATATCTCTCACTTATTTAAA
[1]
  cleaved RNA product abundance: 0.151

## ACAGACGAAGGAGCCGCAAAGAAGTTAGTAAGGGATGAATAATCCATCAATATAAATATCTCTCACTTATTTAAA
[2]
  cleaved RNA product abundance: 0.251

## ACAGACGAAGGAGCCGCAAAGAAGTTAGTAAGGGATGAATAATCCCTCAATATAAATATCTCTCACTTATTTAAA
[2]
  cleaved RNA product abundance: 0.306
[1]
  cleaved RNA product abundance: 0.443
[3]
  cleaved RNA product abundance: 0.559

## ACAGACGAAGGAGCCGCAAAGAAGTTAGTAAGGGATGAATAATCCCTCAATATAAATGTCTCTCACTTATTTAAA
[2]
  cleaved RNA product abundance: 0.187

## ACAGACGAAGGAGCCGCAAAGAAGTTAGTAAGGGATGAATAATCCCTTAATATAAATATCTCTCACTTATTTAAA
[1]
  cleaved RNA product abundance: 0.724

## ACAGACGAAGGAGCCGCAAAGAAGTTAGTAAGGGATGAATAATCCGTCAATATAAATATCTCTCACTTATTTAAA
[1]
  cleaved RNA product abundance: 0.218

## ACAGACGAAGGAGCCGCAAAGAAGTTAGTAAGGGATGAATAATCCTTCAATATAAATATCTCTCACTTATTTAAA
[2]
  cleaved RNA product abundance: 0.29

## ACAGACGAAGGAGCCGCAAAGAAGTTAGTAAGGGATTAATAATCCCTCAATATAAATATCTCTCACTTATTTAAA
[1]
  cleaved RNA product abundance: 0.406

## ACAGACGAAGGAGCCGCAAAGAAGTTAGTAAGGTATGAATAATCCCTCAATATAAATATCTCTCACTTATTTAAA
[1]
  cleaved RNA product abundance: 0.135

## ACAGACGAAGGAGCCGCAAAGAAGTTAGTAATGGATGAATAATCCCTCAATATAAATATCTCTCACTTATTTAAA
[1]
  cleaved RNA product abundance: 0.141

## ACAGACGAAGGAGCCGCAAAGAAGTTAGTACGGGATGAATAATCCCTCAATATAAATATCTCTCACTTATTTAAA
[2]
  cleaved RNA product abundance: 0.269

## ACAGACGAAGGAGCCGCAAAGAAGTTATAAAAGGATAAATAATCCCTCAATATAAATATCTCTCACTTATTTAAA
[2]
  cleaved RNA product abundance: 0.141

## ACAGACGAAGGAGCCGCAAAGAAGTTATAAAAGGATGAATAATCCCTCAATATAAATATCTCTCACTTATTTAAA
[2]
  cleaved RNA product abundance: 0.153
[1]
  cleaved RNA product abundance: 0.165

## ACAGACGAAGGAGCCGCAAAGAAGTTATAAACGGATGAATAATCCCTCAATATAAATATCTCTCACTTATTTAAA
[2]
  cleaved RNA product abundance: 0.132
[1]
  cleaved RNA product abundance: 0.181

## ACAGACGAAGGAGCCGCAAAGAAGTTATAAAGAGATGAATAATCCCTCAATATAAATATCTCTCACTTATTTAAA
[2]
  cleaved RNA product abundance: 0.11
[1]
  cleaved RNA product abundance: 0.137

## ACAGACGAAGGAGCCGCAAAGAAGTTATAAAGGAATGAATAATCCCTCAATATAAATATCTCTCACTTATTTAAA
[2]
  cleaved RNA product abundance: 0.0926
[1]
  cleaved RNA product abundance: 0.124

## ACAGACGAAGGAGCCGCAAAGAAGTTATAAAGGCATGAATAATCCCTCAATATAAATATCTCTCACTTATTTAAA
[2]
  cleaved RNA product abundance: 0.122
[1]
  cleaved RNA product abundance: 0.113

## ACAGACGAAGGAGCCGCAAAGAAGTTATAAAGGGAAGAATAATCCCTCAATATAAATATCTCTCACTTATTTAAA
[2]
  cleaved RNA product abundance: 0.174
[1]
  cleaved RNA product abundance: 0.322

## ACAGACGAAGGAGCCGCAAAGAAGTTATAAAGGGACGAATAATCCCTCAATATAAATATCTCTCACTTATTTAAA
[1]
  cleaved RNA product abundance: 0.326

## ACAGACGAAGGAGCCGCAAAGAAGTTATAAAGGGATAAATAATCCCTCAATATAAATATCTCTCACTTATTTAAA
[2]
  cleaved RNA product abundance: 0.316
[1]
  cleaved RNA product abundance: 0.358

## ACAGACGAAGGAGCCGCAAAGAAGTTATAAAGGGATCAATAATCCCTCAATATAAATATCTCTCACTTATTTAAA
[2]
  cleaved RNA product abundance: 0.26
[1]
  cleaved RNA product abundance: 0.434

## ACAGACGAAGGAGCCGCAAAGAAGTTATAAAGGGATGAAAAATCCCTCAATATAAATATCTCTCACTTATTTAAA
[1]
  cleaved RNA product abundance: 0.4

## ACAGACGAAGGAGCCGCAAAGAAGTTATAAAGGGATGAACAATCCCTCAATATAAATATCTCTCACTTATTTAAA
[2]
  cleaved RNA product abundance: 0.261
